From FireProtDB (doi:10.1038/srep15545)

B1: Divalent-cation tolerance protein CutA, P69488 (parent)
chain: MLDEKSSNTASVVVLCTAPDEATAQDLAAKVLAEKLAACATLIPGATSLYYWEGKLEQEYEVQMILKTTVSHQQALLECLKSHHPYQTPELLVLPVTHGDTDYLSWLNASLR

Variants of: B1
Conditions: Escherichia coli (strain K12), pH 9, Thermal, DSC, Glycine 50mM, reversible: yes, whole UniProt chain shown

Variant	Tm (structure 1NAQ) [°C]	change of melting temperature, mutant - wild type (higher = more stable) (structure 1NAQ) [°C]	unfolding enthalpy (calorimetric) (structure 1NAQ) [kcal/mol]	Tm (structure 4Y65) [°C]	change of melting temperature, mutant - wild type (higher = more stable) (structure 4Y65) [°C]	unfolding enthalpy (calorimetric) (structure 4Y65) [kcal/mol]
S11V	103	17.1	311	–	–	–
S11V E61V	113	27.6	375	–	–	–
T17K	107	21.6	314	–	–	–
S48K	112	26.6	280	118	32.7	337
S48K H72K S82K Q87K T88R	137	51.2	416	–	–	–
E61V	101	15.4	293	–	–	–
H72K	118	32.8	364	–	–	–
S82K	117	31.3	353	–	–	–
S82R	117	31.5	346	–	–	–
Q87K	117	31.2	340	–	–	–
Q87K T88R	122	36.8	378	–	–	–
T88R	118	32	359	–	–	–
S110R	117	31.7	391	–	–	–
C39D	–	–	–	105	19.8	286
